Measured values as given in patent publication US20050031631A1.

Columns and labels:
[1] = molecular target: human IgE of ten monosensitive Pj allergic patients (single sera / the patients themselves) (human); assay: cell-based or functional assay
[2] = molecular target: human IgE from a pool of sera (n=10) of Pj monosensitive allergic patients (human); assay: ELISA inhibition: pool of sera (n=10, 1:5) preincubated with the protein (0.25-20 ug/ml), then on wells coated with rParj1; bound IgE detected

| skin prick test, patients with Type I immediate hypersensitivity (out of 10 patients) [1] | % inhibition [2] | skin prick test, patients with a positive reaction (out of 10 patients) [1] | Binder |
| --- | --- | --- | --- |
| – | 15% | – | PjD mutant of Par j 1.0102 (Cys29->Ser, Cys30->Ser, Cys50->Ser and Cys52->Ser) (protein, not shown: small tags and cut ends) QETCGTMVRALMPCLPFVQGKEKEPSKGSSSGAKRLDGETKTGPQRVHASESIQTAMKTYSDIDGKLVSEVPKHCGIVDSKLPPIDVNMDCKTVGVVPRQPQLPVSLRHGPVTGPSDPAHKARLERPQIRVPPPAPEKA |
| – | 95% | – | recombinant Par j 1.0102, major allergen of Parietaria judaica (wild type) (protein, not shown: small tags and cut ends) QETCGTMVRALMPCLPFVQGKEKEPSKGCCSGAKRLDGETKTGPQRVHACECIQTAMKTYSDIDGKLVSEVPKHCGIVDSKLPPIDVNMDCKTVGVVPRQPQLPVSLRHGPVTGPSDPAHKARLERPQIRVPPPAPEKA |

Further lines, the binder ahead of its results:

| Binder | skin prick test, patients with Type I immediate hypersensitivity (out of 10 patients) [1] | % inhibition [2] | skin prick test, patients with a positive reaction (out of 10 patients) [1] |
| --- | --- | --- | --- |
| PjB mutant of Par j 1.0102 (Cys50->Ser and Cys52->Ser) (protein, not shown: small tags and cut ends) QETCGTMVRALMPCLPFVQGKEKEPSKGCCSGAKRLDGETKTGPQRVHASESIQTAMKTYSDIDGKLVSEVPKHCGIVDSKLPPIDVNMDCKTVGVVPRQPQLPVSLRHGPVTGPSDPAHKARLERPQIRVPPPAPEKA | 9 | 85% | – |
| PjA mutant of Par j 1.0102 (Cys29->Ser and Cys30->Ser) (protein, not shown: small tags and cut ends) QETCGTMVRALMPCLPFVQGKEKEPSKGSSSGAKRLDGETKTGPQRVHACECIQTAMKTYSDIDGKLVSEVPKHCGIVDSKLPPIDVNMDCKTVGVVPRQPQLPVSLRHGPVTGPSDPAHKARLERPQIRVPPPAPEKA | – | 16% | 3 |
| PjC mutant of Par j 1.0102 (Cys4->Ser, Cys29->Ser and Cys30->Ser) (protein, not shown: small tags and cut ends) QETSGTMVRALMPCLPFVQGKEKEPSKGSSSGAKRLDGETKTGPQRVHACECIQTAMKTYSDIDGKLVSEVPKHCGIVDSKLPPIDVNMDCKTVGVVPRQPQLPVSLRHGPVTGPSDPAHKARLERPQIRVPPPAPEKA | – | 14% | – |
